Experimental data: the domain aggregation screens of Martell et al. (2025)

Assay: soluble fraction after stress (log2 fold change); higher = more stays soluble; pooled small domains, quantitative proteomics
Conditions: stress: pH 4
Outline: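 How much of each domain stays soluble after acid stress, expressed as a fold change, is used to gauge aggregation propensity. Pooled custom libraries of small domains underwent pH 4 stress before high-throughput quantitative proteomics. A higher log2 value means more of the domain stayed soluble.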

**Q.** With “HMDADRLSPREREMLQFIARGQSNKEIARALELAESTVKIHVQNMLRKLNLSSRVQAAVFAVENGLG” as the sequence, how does the “soluble fraction (log2)” value read?
**A.** The value was 0.302.

**Q.** For “HMPAWKINQELQATVIATKANQTRLRIEGQTFETQTAIALKPGQSLLIKVVSLEPQISFALI”, which “soluble fraction (log2)” value is on record?
**A.** Its value is 0.199.

**Q.** With “HMENIDVGQDYKVTMNTIQNLMKTGLVTGTQYKELLREMGVHSGMGAITAQQHQIALDFLNKTMDSA” as the sequence, how does the “soluble fraction (log2)” value read?
**A.** The value was -0.444.

**Q.** Which “soluble fraction (log2)” value does the source give for “HMQADEENPKYPVITDGVIQLEVLESIDKTEEWLVERLAKDGYNNVSEIFIAEYENGNLSIVT” here?
**A.** The value was -0.742.

**Q.** With “HMGISNEETFLLEKMSSGRRYSRKELDNLMGFEKTKTIRLLGSLINKGLVVAEGVNRARRYIR” as the sequence, how does the “soluble fraction (log2)” value read?
**A.** The value was -0.00925.

**Q.** With “HMFNPEQDPKQLTGRERAVADLIGLGANNAEIAIRLSMSERTVKAHLTSIFQQLNVRDRVQLALVMNQL” as the sequence, how does the “soluble fraction (log2)” value read?
**A.** The value was -0.541.

**Q.** For “HMGAGLKIGNDHEYANYLEYKVSVEKYAPGAILGEIKQKGIQFNTTISKTTFYRYITDGVFLTITNADLPV”, which “soluble fraction (log2)” value is on record?
**A.** Its value is -0.138.

**Q.** For “HMNDYIGVDRAKEIALNHARMNESDVQFAKAKLENDDGVVEYEIEFYFGRTEYDYTIDAVSGNIIEYDVEY”, which “soluble fraction (log2)” value is on record?
**A.** Its value is -0.0067.

**Q.** With “HMAGTDLSERESEIAMLLLKGYPYKLIASRLYISESTVKSHVQNIYGKLGIHSRTELIEQFSAS” as the sequence, how does the “soluble fraction (log2)” value read?
**A.** Its value is -0.966.

**Q.** With “HMLSTGIIIGDNVALRKTASSNGGIITRLDEGTVVKILASNVNAEWYQVEAGTKTGYVNRLYVNID” as the sequence, how does the “soluble fraction (log2)” value read?
**A.** The value was -0.345.

**Q.** Which “soluble fraction (log2)” value does the source give for “HMQVEMVLSQEAHEWLLQRGFIPEYGAREMDRVIAAHLKPLLMREILFGTLKAGGKVRVQVENGALKLQP” here?
**A.** The value was -1.74.

**Q.** With “HMTTLAADFNSDGRVDIGDLSILAGNWGKSRTNEVDFNKYGDADYNGRIDIIDLSILATQFGQTDNSN” as the sequence, how does the “soluble fraction (log2)” value read?
**A.** Its value is -0.142.

**Q.** With “HMRFEWFDTLTDREKEIFGLIATGFDNQQIADRLQLAEQTVRNNISTIYSKLEVKDRFEIIRLANTI” as the sequence, how does the “soluble fraction (log2)” value read?
**A.** Its value is -1.29.

**Q.** With “HMLTGDVDRYKDFFIALEKTSPVPIGFEKIIGGAHGYYHLEDKRIAIDEGMSELQTLKTAIHEIAHAKLHD” as the sequence, how does the “soluble fraction (log2)” value read?
**A.** The value was -0.123.

**Q.** With “HMGGKYKGVIIGHLIDKTLRYNELQKLISHATPKMLIQQLKELEADGIIQRKLYPVVPPKTEYSLTERG” as the sequence, how does the “soluble fraction (log2)” value read?
**A.** The value was -0.0376.

**Q.** Which “soluble fraction (log2)” value does the source give for “HMKINVQETEVYRYLLERADRLYSMILGEERENLMERTRFFEKEVAKASLPHLPKLYDEFSIYLDRLERG” here?
**A.** Its value is -0.555.

**Q.** With “HMQGQADFTQGIANFTQYPVGSRITVFTLEGRRVAVVEIGKDGTAQLDMRNKPAGVYIVNTGKQSFKWLK” as the sequence, how does the “soluble fraction (log2)” value read?
**A.** The value was -0.0678.

**Q.** Which “soluble fraction (log2)” value does the source give for “HMAQLSDMLTYLRKRKGLSQQELANTLKISRSAIGMYETGKREPDLETLEVFADFYNVDMNTLTGKA” here?
**A.** Its value is 0.192.

**Q.** Which “soluble fraction (log2)” value does the source give for “HMLSDADLAAFREVFDLVDKDKSGAIEMEEVEELTKLLGLDLTRDEVELLVREIDKDGNGEVDFEEFLLVM” here?
**A.** The value was -0.115.

**Q.** For “HMYLPGERMRIKITALGSNPKQGVGYLPDGMMVVVDEAATLVGRFVEIEFVKFLQTNSGRMMFAKVAT”, which “soluble fraction (log2)” value is on record?
**A.** The value was -0.02.

**Q.** Which “soluble fraction (log2)” value does the source give for “HMMVIMRANATEPQIANVVAYVEKNGLNAHLSRGAERTVIGVVGDIRRVSKETFELMDGVDSVMRIS” here?
**A.** Its value is -0.734.

**Q.** Which “soluble fraction (log2)” value does the source give for “HMDYKSTLQELVQTVKKSVTYEVIDEEGPSHNKTFTSIVKIDGIVMGKGTAGSKKASEQEAARDALSKR” here?
**A.** Its value is -0.0966.

**Q.** With “HMSSPRAIYSAIQKAVGEDMILYREDVQIILDKLDADLLVDDILEKMELDGTLVRQRDGTWLLL” as the sequence, how does the “soluble fraction (log2)” value read?
**A.** Its value is -1.01.

**Q.** Which “soluble fraction (log2)” value does the source give for “HMRAPEIEAARSDLDVGQTVQIVRHLHGNQYEVFYRGAQWQAEAVGSSGANDAQTAVITGKNGNILLIQI” here?
**A.** Its value is -0.297.

**Q.** Which “soluble fraction (log2)” value does the source give for “HMENMSFGTKLYTWLYGKLVGSDEIGNKYYTNINDPSDLNAKRWVIFNGEIEASKIPPHWHAWLHKSIDK” here?
**A.** The value was -0.265.

**Q.** For “HMKKHAPSLMRQIRRELKEGKSPESLLSKAKLISDSYYRSLSFYLLIPYLSPNSKQFQEAISLAGKDID”, which “soluble fraction (log2)” value is on record?
**A.** Its value is -0.216.

**Q.** Which “soluble fraction (log2)” value does the source give for “HMRDANYFINPIHEWQKRYEALRASFVDRLPAQAVAQRFGYTITYIHLLRHQFKSGKIDFSEPVPEG” here?
**A.** The value was -1.91.

**Q.** With “HMFQNPSQVVTTRVGELRAAIPTAQQGRITMGVAVVEDANSVRSVLISTSEPRGYLRPGVTLGPGETMV” as the sequence, how does the “soluble fraction (log2)” value read?
**A.** The value was 0.106.

**Q.** With “HMLTSAQLAEIRQAVRAGQASVVEDLLKNGASPNFRMENGDTGFTYAVRADTPQVAEALLKSGKL” as the sequence, how does the “soluble fraction (log2)” value read?
**A.** The value was -0.00206.

**Q.** For “HMQTMTAGERREAILRELEQAQGPVSASALAKRFHVSRQAVVGDVAMLRALNSPIAATPRGYVLTR”, which “soluble fraction (log2)” value is on record?
**A.** The value was 0.0633.

**Q.** With “HMEGPALKVWKARYLRAAILEQLLSDRWDDRGGQPIRVVVNEPTNSLLIRIPRHLWPEAEKLLQELDQR” as the sequence, how does the “soluble fraction (log2)” value read?
**A.** The value was -0.312.

**Q.** For “HMEYDYKVIDFFKDYYSYLNYQEIEPNILDKQLTTLTEEESAKIAGIMKLDYEDFTRGIEIVTGS”, which “soluble fraction (log2)” value is on record?
**A.** Its value is -1.41.

**Q.** For “HMDEAETELIRRMVSEHPPTTKRERDIVQMRLRGYLFVEIGEAYGISFQRAAQIYNAAVEKIKEYWD”, which “soluble fraction (log2)” value is on record?
**A.** Its value is -0.454.

**Q.** For “HMGGPAGPDFTYTGDDLTRIDYDDGSYKVFTYDAGKLSQIDFTSGGTTTRKTFVYSGDTLIRVDQTI”, which “soluble fraction (log2)” value is on record?
**A.** The value was -1.43.

**Q.** Which “soluble fraction (log2)” value does the source give for “HMSKTEEIAYTTFVKYLENKDIEEVYLGNNAKIKVILKDGREMITDNPRTADFKKDLLLHDIKVVEKT” here?
**A.** Its value is ≥ 0.43.

**Q.** With “HMTSPKSRIVSALLASPSRPEELAMRLGEDILTLMRTLTDFEASGIIQRLPDGRYTPTREYHLGLVDK” as the sequence, how does the “soluble fraction (log2)” value read?
**A.** Its value is -0.534.

**Q.** With “HMAEWLLVQLTNGNWFYGEVIEKTDATIVLNTDILGKVSIQKLDIRRSISGPLTAAKRQEIEDSERAKD” as the sequence, how does the “soluble fraction (log2)” value read?
**A.** Its value is -0.341.
